Changes are numbered by the printed parent chain. In names and notes the source's numbering stands.
B1: Modified MTSP-1 protease domain Q38H/I41S/D60bT/F60eS/Y60gW/F97D/ins97aV/T98P/F99L/C122S/G151H/Q175L/Q192E (enzyme)
chain: VVGGTDADEGEWPWQVSLHALGHGHSCGASLISPNWLVSAAHCYIDTRGSRWSDPTQWTAFLGLHDQSQRSAPGVQERRLKRIISHPFFNDDVPLDYDIALLELEKPAEYSSMVRPISLPDASHVFPAGKAIWVTGWGHTQYGGTHALILQKGEIRVINQTTCENLLPQLITPRMMCVGFLSGGVDSCEGDSGGPLSSVEADGRIFQAGVVSWGDGCAQRNKPGVYTRLPLFRDWIKENTGV
B2: Modified MTSP-1 protease domain Q38H/I41S/D60bT/F60eS/Y60gW/F97D/ins97aV/T98P/F99L/C122S/G151H/Q175L/Q192D (enzyme)
chain: B1 chain with E189D
B3: Modified MTSP-1 protease domain Q38H/I41A/D60bT/F60eK/Y60gW/F97T/ins97aE/T98G/F99L/C122S/G151H/Q175L/Q192D (enzyme)
chain: B1 chain with S26A, S50K, D92T, V93E, P94G, E189D
B4: Modified MTSP-1 protease domain Q38H/I41S/D60bT/F60eS/Y60gW/F97D/ins97aV/T98P/F99L/C122S/G151N/Q175L/Q192D (enzyme)
chain: B1 chain with H146N, E189D
B5: Modified MTSP-1 protease domain Q38H/I41A/D60bV/F60eR/Y60gW/F97T/ins97aE/T98G/F99L/C122S/G151H/Q175L/Q192D (enzyme)
chain: B1 chain with S26A, T47V, S50R, D92T, V93E, P94G, E189D
B6: Modified MTSP-1 protease domain Q38H/I41A/D60bV/F60eR/Y60gW/D96I/F97Y/ins97aN/T98G/F99L/C122S/G151N/Q175L/Q192D (enzyme)
chain: B1 chain with S26A, T47V, S50R, D91I, D92Y, V93N, P94G, H146N, E189D
B7: Modified MTSP-1 protease domain Q38H/I41S/D60bT/F60eS/Y60gW/D96K/F97D/ins97aA/T98P/F99L/C122S/G151H/Q175L/Q192D (enzyme)
chain: B1 chain with D91K, V93A, E189D
B8: Modified MTSP-1 protease domain Q38H/I41A/D60bV/F60eR/Y60gW/D96P/F97W/ins97aN/T98G/F99L/C122S/G151N/Q175L/Q192E (enzyme)
chain: B1 chain with S26A, T47V, S50R, D91P, D92W, V93N, P94G, H146N
B9: Modified MTSP-1 protease domain Q38H/I41A/D60bV/F60eR/Y60gW/D96I/F97N/T98G/F99L/C122S/G151N/Q175L/Q192D (enzyme)
chain: VVGGTDADEGEWPWQVSLHALGHGHACGASLISPNWLVSAAHCYIDVRGRRWSDPTQWTAFLGLHDQSQRSAPGVQERRLKRIISHPFFNINGLDYDIALLELEKPAEYSSMVRPISLPDASHVFPAGKAIWVTGWGHTQYGGTNALILQKGEIRVINQTTCENLLPQLITPRMMCVGFLSGGVDSCDGDSGGPLSSVEADGRIFQAGVVSWGDGCAQRNKPGVYTRLPLFRDWIKENTGV
B10: Modified MTSP-1 protease domain Q38H/I41S/D60bT/F60eS/Y60gW/D96Y/F97E/ins97aV/T98G/F99L/C122S/G151H/Q175L/Q192D (enzyme)
chain: B1 chain with D91Y, D92E, P94G, E189D
B11: Modified MTSP-1 protease domain Q38H/I41S/D60bT/F60eS/Y60gW/D96L/F97D/ins97aG/T98N/F99L/C122S/G151H/Q175L/Q192E (enzyme)
chain: B1 chain with D91L, V93G, P94N
B12: Modified MTSP-1 protease domain Q38H/I41S/D60bT/F60eS/Y60gW/D96K/F97G/ins97aV/T98P/F99L/C122S/G151H/Q175L/Q192D (enzyme)
chain: B1 chain with D91K, D92G, E189D
B13: Modified MTSP-1 protease domain Q38H/I41S/D60bT/F60eS/Y60gW/D96V/F97G/ins97aV/T98P/F99L/C122S/G151H/Q175L/Q192D (enzyme)
chain: B1 chain with D91V, D92G, E189D
B14: Modified MTSP-1 protease domain Q38H/I41S/D60bT/F60eS/Y60gW/D96K/F97D/ins97aA/T98P/F99L/C122S/G151N/Q175L/Q192D (enzyme)
chain: B1 chain with D91K, V93A, H146N, E189D
B15: Q38H/I41A/D60bV/F60eR/Y60gW/D96I/F97N/T98G/F99L/C122S/G151N/Q175L/Q192D (enzyme)
chain: B9 chain
B16: H40R/I41H/Y60gH/F97D/F99L/C122S/Q175M/Q192G/D217I/K224L (enzyme)
chain: VVGGTDADEGEWPWQVSLHALGQGRHCGASLISPNWLVSAAHCYIDDRGFRHSDPTQWTAFLGLHDQSQRSAPGVQERRLKRIISHPFFNDDTLDYDIALLELEKPAEYSSMVRPISLPDASHVFPAGKAIWVTGWGHTQYGGTGALILQKGEIRVINQTTCENLLPQMITPRMMCVGFLSGGVDSCGGDSGGPLSSVEADGRIFQAGVVSWGIGCAQRNLPGVYTRLPLFRDWIKENTGV
B17: Q38H/I41A/D60bV/F60eR/Y60gW/F97D/F99L/C122S/G151H/Q175L/Q192D (enzyme)
chain: B9 chain with I91D, N92D, G93T, N145H
B18: Q38H/I41A/D60bV/F60eR/Y60gW/D96F/F97Y/ins97aN/T98G/F99M/C122S/G151N/Q175L/Q192G (enzyme)
chain: B1 chain with S26A, T47V, S50R, D91F, D92Y, V93N, P94G, L95M, H146N, E189G
B19: Q38H/I41S/D60bT/F60eS/Y60gW/D96Y/F97N/ins97aE/T98S/F99L/C122S/G151H/Q175L/Q192D (enzyme)
chain: B1 chain with D91Y, D92N, V93E, P94S, E189D
B20: Q38H/I41S/D60bT/F60eS/Y60gW/D96K/F97D/ins97aA/T98P/F99L/C122S/G151N/Q175L/Q192D (enzyme)
chain: B1 chain with D91K, V93A, H146N, E189D
B21: Q38H/I41S/D60bT/F60eS/Y60gW/D96K/F97G/ins97aV/T98P/F99L/C122S/G151H/Q175L/Q192D (enzyme)
chain: B1 chain with D91K, D92G, E189D
B22: Modified MTSP-1 protease domain I41R/F97T/Ins97aE/T98G/F99L/C122S/G151N/Q175L/Q192E (enzyme)
chain: B1 chain with H23Q, S26R, T47D, S50F, W52Y, D92T, V93E, P94G, H146N
B23: Wild-type MTSP-1 protease domain with C122S (enzyme)
chain: B16 chain with R25H, H26I, H52Y, D92F, L94F, M169Q, G188Q, I214D, L221K
B24: I41R/F97T/Ins97aE/T98G/F99L/C122S/G151N/Q175L/Q192E (enzyme)
chain: B1 chain with H23Q, S26R, T47D, S50F, W52Y, D92T, V93E, P94G, H146N
B25: Q38H/I41A/D60bV/F60eR/Y60gW/F97T/ins97aE/T98G/F99L/C122S/G151N/Q175L/Q192D (enzyme)
chain: B1 chain with S26A, T47V, S50R, D92T, V93E, P94G, H146N, E189D
B26: Q38H/I41A/D60bT/F60eK/Y60gW/F97T/ins97aE/T98G/F99L/C122S/G151N/Q175L/Q192D (enzyme)
chain: B1 chain with S26A, S50K, D92T, V93E, P94G, H146N, E189D
B27: Q38H/I41S/D60bT/F60eS/Y60gW/F97D/ins97aV/T98P/F99L/C122S/G151H/Q175L/Q192E (enzyme)
chain: B1 chain
B28: Q38H/I41S/D60bT/F60eS/Y60gW/F97D/ins97aV/T98P/F99L/C122S/G151H/Q175L/Q192D (enzyme)
chain: B1 chain with E189D
B29: Q38H/I41A/D60bT/F60eK/Y60gW/F97T/ins97aE/T98G/F99L/C122S/G151H/Q175L/Q192D (enzyme)
chain: B1 chain with S26A, S50K, D92T, V93E, P94G, E189D
B30: Q38H/I41A/D60bV/F60eR/Y60gW/F97T/ins97aE/T98G/F99L/C122S/G151H/Q175L/Q192D (enzyme)
chain: B1 chain with S26A, T47V, S50R, D92T, V93E, P94G, E189D
B31: Q38H/I41A/D60bV/F60eR/Y60gW/D96I/F97Y/ins97aN/T98G/F99L/C122S/G151N/Q175L/Q192D (enzyme)
chain: B1 chain with S26A, T47V, S50R, D91I, D92Y, V93N, P94G, H146N, E189D
B32: Q38H/I41S/D60bT/F60eS/Y60gW/D96K/F97D/ins97aA/T98P/F99L/C122S/G151H/Q175L/Q192D (enzyme)
chain: B1 chain with D91K, V93A, E189D
B33: Modified MTSP-1 protease domain Q38H/I41A/D60bV/F60eR/Y60gW/F97T/ins97aE/T98G/F99L/C122S/G151N/Q175L/Q192D (enzyme)
chain: B1 chain with S26A, T47V, S50R, D92T, V93E, P94G, H146N, E189D
B34: Modified MTSP-1 protease domain Q38H/I41A/D60bT/F60eK/Y60gW/F97T/ins97aE/T98G/F99L/C122S/G151N/Q175L/Q192D (enzyme)
chain: B1 chain with S26A, S50K, D92T, V93E, P94G, H146N, E189D

How the values were obtained:
Experiment in all cases: cell-based or functional assay
[1] = target: proteinase-activated receptor 2 (PAR-2) (UniProt P55085)
Chain of proteinase-activated receptor 2 (PAR-2) (P55085 37-397 limits assumed): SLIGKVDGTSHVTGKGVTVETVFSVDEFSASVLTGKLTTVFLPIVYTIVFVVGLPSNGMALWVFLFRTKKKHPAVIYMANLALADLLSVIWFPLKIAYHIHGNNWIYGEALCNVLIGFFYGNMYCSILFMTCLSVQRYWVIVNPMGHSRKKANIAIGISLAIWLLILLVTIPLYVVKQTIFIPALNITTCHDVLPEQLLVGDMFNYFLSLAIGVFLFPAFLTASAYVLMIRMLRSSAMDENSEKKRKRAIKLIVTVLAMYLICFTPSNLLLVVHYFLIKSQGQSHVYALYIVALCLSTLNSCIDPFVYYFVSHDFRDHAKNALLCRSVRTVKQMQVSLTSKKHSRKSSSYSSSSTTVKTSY

[2] = target: human complement protein C3 (human) (UniProt P01024)
Chain of human complement protein C3 (human) (P01024 23-667, chain 1 of 2): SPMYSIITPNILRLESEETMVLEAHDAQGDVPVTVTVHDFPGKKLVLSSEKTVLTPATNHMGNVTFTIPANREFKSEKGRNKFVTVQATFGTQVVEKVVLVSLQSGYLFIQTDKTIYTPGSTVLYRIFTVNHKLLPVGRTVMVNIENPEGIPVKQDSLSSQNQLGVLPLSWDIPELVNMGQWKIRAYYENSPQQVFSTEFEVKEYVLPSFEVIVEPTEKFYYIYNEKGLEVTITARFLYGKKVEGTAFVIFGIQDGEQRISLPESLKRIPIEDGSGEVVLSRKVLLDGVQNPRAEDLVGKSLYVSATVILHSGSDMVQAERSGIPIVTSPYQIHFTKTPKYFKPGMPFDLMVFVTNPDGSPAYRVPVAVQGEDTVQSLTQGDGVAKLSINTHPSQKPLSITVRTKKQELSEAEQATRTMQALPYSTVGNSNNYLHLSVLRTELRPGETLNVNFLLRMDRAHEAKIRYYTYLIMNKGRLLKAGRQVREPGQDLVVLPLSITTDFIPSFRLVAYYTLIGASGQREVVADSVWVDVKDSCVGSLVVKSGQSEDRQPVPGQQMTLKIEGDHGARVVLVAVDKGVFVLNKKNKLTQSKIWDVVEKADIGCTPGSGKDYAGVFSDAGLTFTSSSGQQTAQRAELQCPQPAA
Chain of human complement protein C3 (human) (P01024 672-1663, chain 2 of 2): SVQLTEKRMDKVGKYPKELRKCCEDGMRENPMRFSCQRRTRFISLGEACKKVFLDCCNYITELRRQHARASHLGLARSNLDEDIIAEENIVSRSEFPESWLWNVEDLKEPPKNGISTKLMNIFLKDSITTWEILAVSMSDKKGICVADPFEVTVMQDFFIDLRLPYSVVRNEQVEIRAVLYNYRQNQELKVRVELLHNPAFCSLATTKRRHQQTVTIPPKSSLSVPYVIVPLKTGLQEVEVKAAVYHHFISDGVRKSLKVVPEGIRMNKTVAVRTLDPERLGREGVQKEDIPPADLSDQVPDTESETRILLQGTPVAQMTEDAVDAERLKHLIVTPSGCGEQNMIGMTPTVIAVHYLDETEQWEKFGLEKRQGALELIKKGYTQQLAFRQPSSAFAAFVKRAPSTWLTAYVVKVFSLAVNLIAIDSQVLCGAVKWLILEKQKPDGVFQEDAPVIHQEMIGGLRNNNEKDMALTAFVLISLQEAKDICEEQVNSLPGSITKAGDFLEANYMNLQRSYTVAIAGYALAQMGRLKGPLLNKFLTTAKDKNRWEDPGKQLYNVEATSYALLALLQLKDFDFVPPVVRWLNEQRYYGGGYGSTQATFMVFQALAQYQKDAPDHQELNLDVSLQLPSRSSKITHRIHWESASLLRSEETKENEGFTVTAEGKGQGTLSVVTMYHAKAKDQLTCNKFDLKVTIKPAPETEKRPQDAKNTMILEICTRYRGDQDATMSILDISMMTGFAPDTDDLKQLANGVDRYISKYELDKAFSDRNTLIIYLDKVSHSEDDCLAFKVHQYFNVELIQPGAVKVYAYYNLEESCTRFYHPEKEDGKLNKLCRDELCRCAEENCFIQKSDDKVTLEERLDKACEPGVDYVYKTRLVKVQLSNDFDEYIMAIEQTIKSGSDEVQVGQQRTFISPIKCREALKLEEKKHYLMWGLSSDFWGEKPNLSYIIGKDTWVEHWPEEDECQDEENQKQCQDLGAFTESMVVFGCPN

[3] = target: complement protein C3 of cynomolgus monkey plasma (cynomolgus monkey)

| Binder | PAR-2 cell based assay ED50 and SKGR/SL kcat/Km, against wild-type MTSP-1 protease domain with C122S [1] [fold] | PAR-2 Cell Based Assay ED50 [1] [nM] | also measured |
| --- | --- | --- | --- |
| B1 | > 30 | – | – |
| B2 | > 30 | – | – |
| B3 | > 30 | – | – |
| B4 | > 30 | – | – |
| B5 | > 30 | – | – |
| B6 | > 30 | – | – |
| B7 | > 30 | – | – |
| B8 | > 30 | – | – |
| B9 | > 30 | – | – |
| B10 | > 30 | – | – |
| B11 | > 30 | – | – |
| B12 | > 30 | – | inhibition of classical pathway hemolytic assay (CH50) in human plasma at the highest dose (2000 nM) [2]: 94% |
| B13 | > 30 | – | – |
| B14 | > 30 | – | – |
| B15 | – | 150 | EC50 (nM), cleavage of purified hC3 in vitro [2]: 2.87 nM |
| B16 | – | – | EC50 (nM), cleavage of purified hC3 in vitro [2]: 3.72 nM |
| B17 | – | – | EC50 (nM), cleavage of purified hC3 in vitro [2]: 3.72 nM |

| Binder | PAR-2 cell based assay ED50 and SKGR/SL kcat/Km, against wild-type MTSP-1 protease domain with C122S [1] [fold] | PAR-2 Cell Based Assay ED50 [1] [nM] | also measured |
| --- | --- | --- | --- |
| B18 | – | – | EC50 (nM), cleavage of purified hC3 in vitro [2]: 3.76 nM |
| B19 | – | – | EC50 (nM), cleavage of purified hC3 in vitro [2]: 4.53 nM |
| B20 | – | – | EC50 (nM), cleavage of purified hC3 in vitro [2]: 5.92 nM |
| B21 | – | – | C3 destruction ED50 (mg/kg), in vivo, intravenous injection, cynomolgus monkey [3]: 0.07 mg/kg; % Inhibition of CH50, human citrated plasma, 3.2 nM test article [2]: -5%; % Inhibition of CH50, human citrated plasma, 16 nM test article [2]: 1%; % Inhibition of CH50, human citrated plasma, 80 nM test article [2]: 40%; % Inhibition of CH50, human citrated plasma, 400 nM test article [2]: 84%; % Inhibition of CH50, human citrated plasma, 2000 nM test article [2]: 92%; EC50 (nM), cleavage of purified hC3 in vitro [2]: 6.86 nM |
| B22 | > 30 | – | – |
| B23 | – | 1.4 | – |
| B24 | – | 2600 | – |
| B25 | – | 690 | C3 destruction ED50 (mg/kg), in vivo, intravenous injection, cynomolgus monkey [3]: 0.2 mg/kg |
| B26 | – | 1900 | C3 destruction ED50 (mg/kg), in vivo, intravenous injection, cynomolgus monkey [3]: 0.2 mg/kg |
| B27 | – | 1800 | C3 destruction ED50 (mg/kg), in vivo, intravenous injection, cynomolgus monkey [3]: 0.1 mg/kg |
| B28 | – | 640 | – |
| B29 | – | 560 | – |
| B30 | – | 430 | – |
| B31 | – | 450 | C3 destruction ED50 (mg/kg), in vivo, intravenous injection, cynomolgus monkey [3]: 0.06 mg/kg |
| B32 | – | 420 | – |
| B33 | > 30 | – | – |
| B34 | > 30 | – | – |
